This assay addresses T1, full-length Human recombinant CHERP with an N-terminal HIS (human, UniProt Q8IWX8 1-916).
T1 sequence: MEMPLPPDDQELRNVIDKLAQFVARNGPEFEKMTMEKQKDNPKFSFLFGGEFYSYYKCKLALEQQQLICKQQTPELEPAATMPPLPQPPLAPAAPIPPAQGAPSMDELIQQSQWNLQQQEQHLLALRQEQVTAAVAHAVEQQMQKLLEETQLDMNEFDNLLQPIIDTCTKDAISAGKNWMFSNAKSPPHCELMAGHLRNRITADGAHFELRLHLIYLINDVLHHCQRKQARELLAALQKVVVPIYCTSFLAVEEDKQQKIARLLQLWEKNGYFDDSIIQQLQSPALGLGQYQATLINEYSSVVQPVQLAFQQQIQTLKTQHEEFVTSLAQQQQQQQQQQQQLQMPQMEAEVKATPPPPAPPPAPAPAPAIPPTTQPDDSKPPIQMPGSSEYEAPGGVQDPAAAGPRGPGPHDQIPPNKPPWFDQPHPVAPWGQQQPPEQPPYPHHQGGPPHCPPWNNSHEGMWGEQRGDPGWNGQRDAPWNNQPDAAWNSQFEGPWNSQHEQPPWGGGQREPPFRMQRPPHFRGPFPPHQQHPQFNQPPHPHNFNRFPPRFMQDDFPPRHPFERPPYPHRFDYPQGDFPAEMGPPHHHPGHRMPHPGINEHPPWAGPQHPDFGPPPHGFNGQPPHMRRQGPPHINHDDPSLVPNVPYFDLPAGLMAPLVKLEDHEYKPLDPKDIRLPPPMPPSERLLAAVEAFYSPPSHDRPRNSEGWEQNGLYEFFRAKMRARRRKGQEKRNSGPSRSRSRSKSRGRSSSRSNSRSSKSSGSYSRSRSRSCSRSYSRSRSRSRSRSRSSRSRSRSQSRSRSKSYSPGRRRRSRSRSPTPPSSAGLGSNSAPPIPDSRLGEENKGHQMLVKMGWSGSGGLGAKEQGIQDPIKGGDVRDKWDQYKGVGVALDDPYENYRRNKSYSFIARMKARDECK
Description: pull-down.

Consider 1 molecule from article PMC6292215 (Cell reports, 2018).

B1: Full-length Human RBM17 recombinant protein with an N-terminal GST tag (natural protein)
chain: MSLYDDLGVETSDSKTEGWSKNFKLLQSQLQVKKAALTQAKSQRTKQSTVLAPVIDLKRGGSSDDRQIVDTPPHVAAGLKDPVPSGFSAGEVLIPLADEYDPMFPNDYEKVVKRQREERQRQRELERQKEIEEREKRRKDRHEASGFARRPDPDSDEDEDYERERRKRSMGGAAIAPPTSLVEKDKELPRDFPYEEDSRPRSQSSKAAIPPPVYEEQDRPRSPTGPSNSFLANMGGTVAHKIMQKYGFREGQGLGKHEQGLSTALSVEKTSKRGGKIIVGDATEKDASKKSDSNPLTEILKCPTKVVLLRNMVGAGEVDEDLEVETKEECEKYGKVGKCVIFEIPGAPDDEAVRIFLEFERVESAIKAVVDLNGRYFGGRVVKACFYNLDKFRVLDLAEQV
For the molecule B1, the binding result is “binds”.
